Patent US20120220489A1

Assays:
[1] = molecular target: pRb recombinant protein, human, Active Motif 31 128 (human) (UniProt P06400); assay: RPA standard curves
[2] = molecular target: ERK1 (p44) active (GST tagged), human, Invitrogen PV 3311 (human) (UniProt P27361); assay: RPA, competition: +free pRb peptide 1000 nM
[3] = molecular target: ERK1 (p44), human, Cell Signaling Technology 7416 (human) (UniProt P27361); assay: RPA, competition: +free pRb peptide 1000 nM
[4] = molecular target: ERK1 (p44) inactive (GST tagged), human, Invitrogen PV 3312 (human) (UniProt P27361); assay: RPA, competition: +free pRb peptide 1000 nM
[5] = molecular target: Histone H3 recombinant protein, human, Upstate 14-494 (human) (UniProt P68431); assay: RPA, competition: +free pRb peptide 1000 nM
[6] = molecular target: Histone H3 recombinant protein, calf, Roche 11 034 758 001 (calf) (UniProt P68432); assay: RPA, competition: +free pRb peptide 1000 nM
[7] = molecular target: pRb recombinant protein, human, Active Motif 31 128 (human) (UniProt P06400); assay: RPA, competition: +free pRb peptide 1000 nM
[8] = molecular target: ERK1 (p42) active (phospho), human, Active Motif 31 152 (human) (UniProt P27361); assay: RPA, competition: +free pRb peptide 1000 nM
[9] = molecular target: ERK2 (p42), human, Biosource PHO 0104 (human) (UniProt P28482); assay: RPA, competition: +free pRb peptide 1000 nM
Sequence of UniProt P28482 (P28482 2-360 limits assumed): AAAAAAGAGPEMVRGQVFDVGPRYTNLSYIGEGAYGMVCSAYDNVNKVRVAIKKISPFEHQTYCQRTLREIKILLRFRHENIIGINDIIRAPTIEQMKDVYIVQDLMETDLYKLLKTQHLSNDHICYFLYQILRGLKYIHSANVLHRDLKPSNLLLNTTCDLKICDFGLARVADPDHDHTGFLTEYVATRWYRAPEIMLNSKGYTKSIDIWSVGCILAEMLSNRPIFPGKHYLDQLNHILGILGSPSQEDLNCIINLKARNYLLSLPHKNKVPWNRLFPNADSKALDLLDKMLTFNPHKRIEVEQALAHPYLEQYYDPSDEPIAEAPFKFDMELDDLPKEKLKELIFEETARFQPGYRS

[10] = molecular target: Erk1-BSA 2.7x peptide-protein conjugate (human; bovine); assay: RPA, competition: +free pRb peptide 1000 nM
Sequence of Erk1-BSA 2.7x peptide-protein conjugate (human; bovine) (peptide, as listed by the source limits assumed, chain 1 of 2): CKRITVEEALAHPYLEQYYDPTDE
Sequence of Erk1-BSA 2.7x peptide-protein conjugate (human; bovine) (P02769 25-607 limits assumed, chain 2 of 2): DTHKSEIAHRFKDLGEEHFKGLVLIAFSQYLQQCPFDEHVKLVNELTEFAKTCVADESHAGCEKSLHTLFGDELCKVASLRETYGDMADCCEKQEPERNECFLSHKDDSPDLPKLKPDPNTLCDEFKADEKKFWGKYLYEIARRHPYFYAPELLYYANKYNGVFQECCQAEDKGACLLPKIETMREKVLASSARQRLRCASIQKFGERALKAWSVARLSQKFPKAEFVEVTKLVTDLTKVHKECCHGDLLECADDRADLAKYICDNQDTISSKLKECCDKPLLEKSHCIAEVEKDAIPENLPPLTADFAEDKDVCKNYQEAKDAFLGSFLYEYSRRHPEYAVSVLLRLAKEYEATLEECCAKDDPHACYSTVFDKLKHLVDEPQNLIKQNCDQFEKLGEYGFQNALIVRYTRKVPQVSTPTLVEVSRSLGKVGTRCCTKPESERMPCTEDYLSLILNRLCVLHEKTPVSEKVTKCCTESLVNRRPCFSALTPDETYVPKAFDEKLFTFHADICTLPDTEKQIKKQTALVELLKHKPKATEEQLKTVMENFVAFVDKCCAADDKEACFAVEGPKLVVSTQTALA

[11] = molecular target: Histone H3-BSA 2.7x peptide-protein conjugate (bovine); assay: RPA, competition: +free pRb peptide 1000 nM
Sequence of Histone H3-BSA 2.7x peptide-protein conjugate (bovine) (P02769 25-607 limits assumed): as the sequence (P02769 25-607 limits assumed, chain 2 of 2) above

[12] = molecular target: pErk1/2-BSA 2.7x peptide-protein conjugate (human; bovine); assay: RPA, competition: +free pRb peptide 1000 nM
Sequence of pErk1/2-BSA 2.7x peptide-protein conjugate (human; bovine) (P02769 25-607 limits assumed): as the sequence (P02769 25-607 limits assumed, chain 2 of 2) above

[13] = molecular target: pRb-BSA 1x peptide-protein conjugate (bovine); assay: RPA, competition: +free pRb peptide 1000 nM
Sequence of pRb-BSA 1x peptide-protein conjugate (bovine) (P02769 25-607 limits assumed): as the sequence (P02769 25-607 limits assumed, chain 2 of 2) above

[14] = molecular target: Histone H3 recombinant protein, human, Upstate 14-494 (human) (UniProt P68431); assay: RPA, normal assay
[15] = molecular target: pRb recombinant protein, human, Active Motif 31 128 (human) (UniProt P06400); assay: RPA, normal assay
[16] = molecular target: Erk1-BSA 2.7x peptide-protein conjugate (human; bovine); assay: RPA, normal assay
[17] = molecular target: Histone H3-BSA 2.7x peptide-protein conjugate (bovine); assay: RPA, normal assay
[18] = molecular target: pRb-BSA 1x peptide-protein conjugate (bovine); assay: RPA, normal assay
[19] = molecular target: pRb recombinant protein, human, Active Motif 31 128 (human) (UniProt P06400); assay: RPA standard curve, assay 2, LOD back-calculated from one-site fit
[20] = molecular target: pRb-BSA 1x peptide-protein conjugate (bovine); assay: as above
[21] = molecular target: ERK1 (p44) active (GST tagged), human, Invitrogen PV 3311 (human) (UniProt P27361); assay: RPA, competition: +free pRb peptide 10 nM
[22] = molecular target: ERK1 (p44), human, Cell Signaling Technology 7416 (human) (UniProt P27361); assay: RPA, competition: +free pRb peptide 10 nM
[23] = molecular target: ERK1 (p44) inactive (GST tagged), human, Invitrogen PV 3312 (human) (UniProt P27361); assay: RPA, competition: +free pRb peptide 10 nM
[24] = molecular target: Histone H3 recombinant protein, human, Upstate 14-494 (human) (UniProt P68431); assay: RPA, competition: +free pRb peptide 10 nM
[25] = molecular target: Histone H3 recombinant protein, calf, Roche 11 034 758 001 (calf) (UniProt P68432); assay: RPA, competition: +free pRb peptide 10 nM
[26] = molecular target: pRb recombinant protein, human, Active Motif 31 128 (human) (UniProt P06400); assay: RPA, competition: +free pRb peptide 10 nM
[27] = molecular target: ERK1 (p42) active (phospho), human, Active Motif 31 152 (human) (UniProt P27361); assay: RPA, competition: +free pRb peptide 10 nM
[28] = molecular target: ERK2 (p42), human, Biosource PHO 0104 (human) (UniProt P28482); assay: RPA, competition: +free pRb peptide 10 nM
[29] = molecular target: Erk1-BSA 2.7x peptide-protein conjugate (human; bovine); assay: RPA, competition: +free pRb peptide 10 nM
[30] = molecular target: Histone H3-BSA 2.7x peptide-protein conjugate (bovine); assay: RPA, competition: +free pRb peptide 10 nM
[31] = molecular target: pErk1/2-BSA 2.7x peptide-protein conjugate (human; bovine); assay: RPA, competition: +free pRb peptide 10 nM
[32] = molecular target: pRb-BSA 1x peptide-protein conjugate (bovine); assay: RPA, competition: +free pRb peptide 10 nM
[33] = molecular target: pRb recombinant protein, human, Active Motif 31 128 (human) (UniProt P06400); assay: RPA standard curve, assay 1, LOD back-calculated from one-site fit
[34] = molecular target: pRb-BSA 1x peptide-protein conjugate (bovine); assay: as above
[35] = molecular target: pRb recombinant protein, human, Active Motif 31 128 (human) (UniProt P06400); assay: RPA standard curves, mean of duplicate assays
[36] = molecular target: pRb-BSA 1x peptide-protein conjugate (bovine); assay: RPA standard curves, mean of duplicate assays
[37] = molecular target: ERK1 (p44) active (GST tagged), human, Invitrogen PV 3311 (human) (UniProt P27361); assay: RPA, competition: +free pRb peptide 100 nM
[38] = molecular target: ERK1 (p44), human, Cell Signaling Technology 7416 (human) (UniProt P27361); assay: RPA, competition: +free pRb peptide 100 nM
[39] = molecular target: ERK1 (p44) inactive (GST tagged), human, Invitrogen PV 3312 (human) (UniProt P27361); assay: RPA, competition: +free pRb peptide 100 nM
[40] = molecular target: Histone H3 recombinant protein, human, Upstate 14-494 (human) (UniProt P68431); assay: RPA, competition: +free pRb peptide 100 nM
[41] = molecular target: Histone H3 recombinant protein, calf, Roche 11 034 758 001 (calf) (UniProt P68432); assay: RPA, competition: +free pRb peptide 100 nM
[42] = molecular target: pRb recombinant protein, human, Active Motif 31 128 (human) (UniProt P06400); assay: RPA, competition: +free pRb peptide 100 nM
[43] = molecular target: ERK1 (p42) active (phospho), human, Active Motif 31 152 (human) (UniProt P27361); assay: RPA, competition: +free pRb peptide 100 nM
[44] = molecular target: ERK2 (p42), human, Biosource PHO 0104 (human) (UniProt P28482); assay: RPA, competition: +free pRb peptide 100 nM
[45] = molecular target: Erk1-BSA 2.7x peptide-protein conjugate (human; bovine); assay: RPA, competition: +free pRb peptide 100 nM
[46] = molecular target: Histone H3-BSA 2.7x peptide-protein conjugate (bovine); assay: RPA, competition: +free pRb peptide 100 nM
[47] = molecular target: pErk1/2-BSA 2.7x peptide-protein conjugate (human; bovine); assay: RPA, competition: +free pRb peptide 100 nM
[48] = molecular target: pRb-BSA 1x peptide-protein conjugate (bovine); assay: RPA, competition: +free pRb peptide 100 nM

Sequence of UniProt P06400 (P06400 whole entry): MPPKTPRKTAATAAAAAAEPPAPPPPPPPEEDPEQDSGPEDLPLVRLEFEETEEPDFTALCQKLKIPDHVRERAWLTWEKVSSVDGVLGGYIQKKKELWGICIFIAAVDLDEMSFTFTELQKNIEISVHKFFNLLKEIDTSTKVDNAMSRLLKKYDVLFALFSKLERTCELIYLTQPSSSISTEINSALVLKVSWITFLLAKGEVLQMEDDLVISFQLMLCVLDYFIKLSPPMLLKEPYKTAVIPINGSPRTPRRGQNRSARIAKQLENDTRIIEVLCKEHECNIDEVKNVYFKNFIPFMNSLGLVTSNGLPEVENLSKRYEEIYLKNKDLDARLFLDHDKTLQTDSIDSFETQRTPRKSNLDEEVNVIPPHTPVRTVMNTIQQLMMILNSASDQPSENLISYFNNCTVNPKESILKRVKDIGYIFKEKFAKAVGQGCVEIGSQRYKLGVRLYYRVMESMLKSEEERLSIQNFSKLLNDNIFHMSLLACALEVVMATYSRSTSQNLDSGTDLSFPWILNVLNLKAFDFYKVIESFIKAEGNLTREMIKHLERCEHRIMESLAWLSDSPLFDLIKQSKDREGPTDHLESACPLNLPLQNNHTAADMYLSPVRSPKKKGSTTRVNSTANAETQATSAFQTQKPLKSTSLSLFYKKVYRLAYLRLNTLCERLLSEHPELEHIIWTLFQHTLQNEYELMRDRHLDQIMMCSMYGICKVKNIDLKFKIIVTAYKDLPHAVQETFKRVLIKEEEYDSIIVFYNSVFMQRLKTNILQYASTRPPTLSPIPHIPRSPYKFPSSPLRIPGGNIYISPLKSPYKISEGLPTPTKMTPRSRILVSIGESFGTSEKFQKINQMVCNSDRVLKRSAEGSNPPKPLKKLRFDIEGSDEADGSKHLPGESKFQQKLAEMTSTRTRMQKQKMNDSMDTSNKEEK

signal intensity relative to the pRb-BSA peptide standard curves [1]: 10%
maximum standard curve signal [2]: < 0.01 RFI
maximum standard curve signal [3]: < 0.01 RFI
maximum standard curve signal [4]: < 0.01 RFI
maximum standard curve signal [5]: < 0.01 RFI
maximum standard curve signal [6]: < 0.01 RFI
maximum standard curve signal [7]: < 0.01 RFI
maximum standard curve signal [8]: < 0.01 RFI
maximum standard curve signal [9]: < 0.01 RFI
maximum standard curve signal [10]: < 0.01 RFI
maximum standard curve signal [11]: 0.01 RFI
maximum standard curve signal [12]: < 0.01 RFI
maximum standard curve signal [13]: < 0.01 RFI
maximum standard curve signal [14]: 0.01 RFI
maximum standard curve signal [15]: 0.04 RFI
maximum standard curve signal [16]: 0.01 RFI
maximum standard curve signal [17]: 0.03 RFI
maximum standard curve signal [18]: 0.47 RFI
LOD [19]: 0.077 nM
LOD [20]: 0.026 nM
maximum standard curve signal [21]: < 0.01 RFI
maximum standard curve signal [22]: < 0.01 RFI
maximum standard curve signal [23]: < 0.01 RFI
maximum standard curve signal [24]: < 0.01 RFI
maximum standard curve signal [25]: < 0.01 RFI
maximum standard curve signal [26]: < 0.01 RFI
maximum standard curve signal [27]: < 0.01 RFI
maximum standard curve signal [28]: < 0.01 RFI
maximum standard curve signal [29]: < 0.01 RFI
maximum standard curve signal [30]: 0.02 RFI
maximum standard curve signal [31]: 0.01 RFI
maximum standard curve signal [32]: 0.07 RFI
LOD [33]: 0.117 nM
LOD [34]: 0.024 nM
mean LOD [35]: 0.097 nM
mean LOD [36]: 0.025 nM
maximum standard curve signal [37]: < 0.01 RFI
maximum standard curve signal [38]: < 0.01 RFI
maximum standard curve signal [39]: < 0.01 RFI
maximum standard curve signal [40]: < 0.01 RFI
maximum standard curve signal [41]: < 0.01 RFI
maximum standard curve signal [42]: < 0.01 RFI
maximum standard curve signal [43]: < 0.01 RFI
maximum standard curve signal [44]: < 0.01 RFI
maximum standard curve signal [45]: < 0.01 RFI
maximum standard curve signal [46]: 0.02 RFI
maximum standard curve signal [47]: < 0.01 RFI
maximum standard curve signal [48]: < 0.01 RFI
Substance: Rb phospho (pRb) Ser807/811 antibody, Cell Signaling Technology #9308
